Data from patent US20240254220A1 (CENTRICSBIO, published 2024).

Tests used:
Assay in all cases: binding ELISA on coated antigen (8 µg/mL), HRP anti-Fc detection, 450 nm (Experimental Example 2.5)
[1] = target: T1, CD300c antigen (11832-H08H, Sino Biological) (human, UniProt Q08708 21-183)
T1 construct: Bought antigen; also called CD300c protein; CD300 antigen-like family member C
T1 sequence (looked up): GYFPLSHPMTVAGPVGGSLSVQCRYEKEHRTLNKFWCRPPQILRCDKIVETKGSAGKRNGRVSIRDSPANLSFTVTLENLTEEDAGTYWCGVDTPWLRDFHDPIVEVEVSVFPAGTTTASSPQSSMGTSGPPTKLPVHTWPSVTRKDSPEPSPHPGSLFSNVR
Experimental: (§1) In order to identify that the anti-CD300c monoclonal antibody CL7 specifically binds only to CD300c without binding to other B7 family proteins, binding ELISA was performed. More specifically, each of CD300c antigen, CD300a antigen, or seven B7 family protein antigens (PD-L1 [B7-H1] (Sino Biological), ICOS Ligand[B7-H2] (Sino Biological), CD276[B7-H3] (Sino Biological), B7-H4 (Sino Biological), CD80[B7-1] (Sino Biological), CD86[B7-2] (Sino Biological), CD273[PD-L2] (Sino Biological)) in a coating buffer (0.1 M sodium carbonate, pH 9.0) was coated on an ELISA plate at a concentration of 8 μg/mL per well, and then bound to the plate by incubation at 2° C. to 8° C. overnight. The unbound antigen was removed by washing with PBST three times, and then […] of blocking buffer (5% skim milk in PBST) was added to each well. Subsequently, blocking was performed at room temperature for 1 hour, followed by washing again with PBST. Thereafter, CL7 was diluted in quadruplicate with PBS, incubated with the antigen at room temperature for 1 hour for antigen binding 1 hour later, and washed three times with PBST. Then, a secondary antibody (HRP-conjugated anti-Fc IgG) diluted to 4 μg/mL in blocking buffer was added thereto, followed by incubation at room temperature for 1 hour. Subsequently, the unbound antibody for detection was removed using PBST, and then a TMB solution was added thereto, followed by incubation for 10 minutes for development. Then, 2 N sulfuric acid solution was added to terminate the development reaction, and the absorbance was measured at 450 nm to identify the antibody specifically binding to the CD300c antigen.

[2] = target: T2, ICOS Ligand[B7-H2] (Sino Biological) (UniProt O75144 19-258, limits assumed)
T2 sequence (looked up): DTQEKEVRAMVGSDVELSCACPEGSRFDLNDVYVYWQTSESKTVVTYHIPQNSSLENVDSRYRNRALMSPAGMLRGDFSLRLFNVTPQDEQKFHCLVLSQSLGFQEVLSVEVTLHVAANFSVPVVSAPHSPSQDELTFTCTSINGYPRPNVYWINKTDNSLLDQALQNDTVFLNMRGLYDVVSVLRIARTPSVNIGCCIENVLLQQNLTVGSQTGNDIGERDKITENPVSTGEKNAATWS
Experimental: as §1

[3] = target: T3, CD276[B7-H3] (Sino Biological) (UniProt Q5ZPR3 29-461, limits assumed)
T3 sequence (looked up): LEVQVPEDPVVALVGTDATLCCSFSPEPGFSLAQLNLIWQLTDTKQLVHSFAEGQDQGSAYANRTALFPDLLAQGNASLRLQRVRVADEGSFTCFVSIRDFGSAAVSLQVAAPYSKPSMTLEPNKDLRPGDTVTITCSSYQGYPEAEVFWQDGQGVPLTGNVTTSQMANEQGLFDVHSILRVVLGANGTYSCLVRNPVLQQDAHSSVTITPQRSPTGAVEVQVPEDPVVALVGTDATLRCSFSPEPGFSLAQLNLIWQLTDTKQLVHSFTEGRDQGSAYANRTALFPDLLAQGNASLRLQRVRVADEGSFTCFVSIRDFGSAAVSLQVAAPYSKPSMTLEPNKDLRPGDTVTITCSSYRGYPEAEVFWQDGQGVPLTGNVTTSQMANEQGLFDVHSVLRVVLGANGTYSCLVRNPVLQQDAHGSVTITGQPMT
Experimental: as §1

[4] = target: T4, B7-H4 (Sino Biological) (UniProt Q7Z7D3 25-258, limits assumed)
T4 sequence (looked up): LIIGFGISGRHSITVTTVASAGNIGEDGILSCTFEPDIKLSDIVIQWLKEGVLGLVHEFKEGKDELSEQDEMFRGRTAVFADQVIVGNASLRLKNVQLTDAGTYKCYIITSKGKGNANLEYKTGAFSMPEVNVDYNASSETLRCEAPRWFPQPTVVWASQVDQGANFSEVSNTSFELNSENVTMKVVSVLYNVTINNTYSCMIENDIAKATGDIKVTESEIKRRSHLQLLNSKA
Experimental: as §1

[5] = target: T5, CD80[B7-1] (Sino Biological) (UniProt P33681 35-242)
T5 sequence (looked up): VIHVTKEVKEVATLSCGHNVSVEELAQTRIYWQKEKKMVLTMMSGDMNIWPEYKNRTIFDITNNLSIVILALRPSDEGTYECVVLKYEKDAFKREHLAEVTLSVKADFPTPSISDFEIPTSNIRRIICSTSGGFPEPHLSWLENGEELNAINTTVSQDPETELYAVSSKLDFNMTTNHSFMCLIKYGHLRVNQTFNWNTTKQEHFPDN
Experimental: as §1

[6] = target: T6, CD273[PD-L2] (Sino Biological) (UniProt Q9BQ51 20-219, limits assumed)
T6 sequence (looked up): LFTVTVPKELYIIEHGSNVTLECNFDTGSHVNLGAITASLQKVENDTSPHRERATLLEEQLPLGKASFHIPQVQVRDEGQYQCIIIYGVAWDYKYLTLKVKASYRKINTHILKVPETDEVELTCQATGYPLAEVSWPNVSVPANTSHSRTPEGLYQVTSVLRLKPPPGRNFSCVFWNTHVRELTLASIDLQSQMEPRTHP
Experimental: as §1

B1: CL7 (antibody, V domains shown)
VH: EVQLLESGGGLVQPGGSLRLSCAASGFTFSRYAMSWVRQAPGKGLEWVSAISGSGGSTYYADSVKGRFTISRDNSKNTLYLQMNSLRAEDTAVYYCARSSQGIFDIWGQGTLVTVSS
VL: QSVLTQPPSASGTPGQRVTISCSGNNIGTRRVHWYQQLPDTAPKLLIYSKNNRPSGVPDRFSGSKSGTSASLAISGLRSEDEADYYCAAWDDSLSGPVFGGGTKLTVL
notes: detected with anti-human IgG (H+L) and anti-Fc IgG; also called anti-CD300c monoclonal antibody CL7; anti-CD300c monoclonal antibody (CL7)
For B1, the “EC50 (read off the curve)” value [1] was about 0.2 µg/mL, the binding result [2] was “no binding (tested: log10 about 0.4 ug/ml (about 2.5 ug/ml))” and the binding result [3] was “no binding (tested: log10 about 0.4 ug/ml (about 2.5 ug/ml))”. B1: no binding (tested: log10 about 0.4 ug/ml (about 2.5 ug/ml)) [4]; no binding (tested: log10 about 0.4 ug/ml (about 2.5 ug/ml)) [5]; no binding (tested: log10 about 0.4 ug/ml (about 2.5 ug/ml)) [6].
